Data: paper PMC6110258

Columns and labels:
[1] = target: H5-Strep-tag (Strep-tag II-fused haemagglutinin H5 ectodomain of A/duck/Viet Nam/TG24-01/2005 (H5N1) (influenza A virus A/duck/Viet Nam/TG24-01/2005 (H5N1) | not stated)); assay: SEC
[2] = target: H5-Strep-tag (Strep-tag II-fused haemagglutinin H5 ectodomain of A/duck/Viet Nam/TG24-01/2005 (H5N1) (influenza A virus A/duck/Viet Nam/TG24-01/2005 (H5N1) | not stated)); assay: cross-linking

For “H5-Strep-tag (Strep-tag II-fused haemagglutinin H5 ectodomain of A/duck/Viet Nam/TG24-01/2005 (H5N1)”, the stoichiometry N [1] was 3 and the stoichiometry N [2] was 3.
